Laboratory results reported in patent US20250276077A1 (IMMUNOME, published 2025).
Where two headings read alike, the source gives them in different places.

Assays:
[1] = molecular target: T1, Human EphA2 (ephrin receptor A2) on cells (human, UniProt P29317 25-976); experiment: cell-based or functional assay
[2] = molecular target: T1, Human EphA2 (ephrin receptor A2) on …; experiment: cell-based or functional assay; remark: listed apart in the source
[3] = molecular target: T1, Human EphA2 (ephrin receptor A2) on …; experiment: cell-based or functional assay; remark: listed apart in the source
[4] = molecular target: T1, Human EphA2 (ephrin receptor A2) on …; experiment: flow cytometry on A549 cells
Protocol: Surface binding of the antibodies to in vitro grown cell lines was assessed by flow cytometry. Tumor cells were detached from their culture plate using Versene and counted. Cells were staining in BSA-containing buffer with primary antibody for 30 minutes at 4° C. with shaking. Following, cells were washed and stained with secondary PE-labeled antibody for 30 minutes at 4° C. with shaking. Before analysis on an Intellicyt iQue3 scanner, cells were counterstained with DAPI. MedFI values from live, single cells was expressed as fold over isotype control.

T1 sequence (P29317 25-976): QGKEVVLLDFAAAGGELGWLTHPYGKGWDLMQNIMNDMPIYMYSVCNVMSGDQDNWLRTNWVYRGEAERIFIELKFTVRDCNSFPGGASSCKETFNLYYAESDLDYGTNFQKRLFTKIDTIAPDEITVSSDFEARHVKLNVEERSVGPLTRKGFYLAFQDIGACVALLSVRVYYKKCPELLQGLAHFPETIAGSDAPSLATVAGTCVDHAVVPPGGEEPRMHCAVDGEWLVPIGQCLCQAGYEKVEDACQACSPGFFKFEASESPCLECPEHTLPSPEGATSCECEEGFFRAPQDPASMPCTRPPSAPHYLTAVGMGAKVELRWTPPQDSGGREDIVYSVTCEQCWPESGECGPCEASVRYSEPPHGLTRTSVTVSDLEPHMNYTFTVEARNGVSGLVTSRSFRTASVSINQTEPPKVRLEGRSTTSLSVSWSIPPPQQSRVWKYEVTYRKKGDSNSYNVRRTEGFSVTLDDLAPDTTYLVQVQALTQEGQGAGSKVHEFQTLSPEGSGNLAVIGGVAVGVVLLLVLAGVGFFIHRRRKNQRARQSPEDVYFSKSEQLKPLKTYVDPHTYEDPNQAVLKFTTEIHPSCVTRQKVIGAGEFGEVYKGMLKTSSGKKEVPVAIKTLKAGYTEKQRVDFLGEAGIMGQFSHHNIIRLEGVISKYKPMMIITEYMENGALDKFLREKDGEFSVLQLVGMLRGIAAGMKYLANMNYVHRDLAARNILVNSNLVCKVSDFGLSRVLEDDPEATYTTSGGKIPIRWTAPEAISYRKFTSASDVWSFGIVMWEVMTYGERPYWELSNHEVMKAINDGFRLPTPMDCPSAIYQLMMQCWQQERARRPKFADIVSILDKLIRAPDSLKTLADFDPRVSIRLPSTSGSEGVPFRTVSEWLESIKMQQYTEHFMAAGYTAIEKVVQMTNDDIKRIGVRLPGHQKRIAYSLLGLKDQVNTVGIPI

ADCC EC50 [1] [nM]	ADCC EC50 [2] [nM]	ADCC Fold-improved (against AB-008873) [2] [fold]	Binder	further results
25.1	–	–	AB-010143 (antibody, mouse IgG2a, V domains shown) VH: QVQLQQWGAGLLKPSETLSLTCAVYGGSFSDYYWSWIRQPPGKGLEWIGEVNHRGSINYNNYNPSLKSRVTISVDTSKNQFSLKLTSVTAADTAVYYCAKPLRPHCTNGVCYSGDAFDIWGQGTMVTVAS VL: SYVLTQPPSVSVAPGQTARITCGGNNIGSKNVHWYQQKPGQAPVLVVYDDSDRPSGIPEQFSGSNSGNTATLTISRVEAGDEADYYCQVWDSSSDHVVFGGGTKLTVL	–
–	28.9	1.2	AB-010366 (antibody, mouse IgG2a, V domains shown) VH: QVQLQQWGAGLLKPSETLSLTCAVYGGSFSGYYWSWIRQPPGKGLEWIGEINHQGSINYNNYNPSLKSRVTISVDTSKNQFSLKLSSVTAADTAVYYCAKPLRPHCTNGVCYSGDAFDIWGQGTMVTVAS VL: SYVLTQPPSVSVAPGQTARITCGGNNIGSKNVHWYQQKPGQAPVLVVYDDSDRPSGIPEQFSGSNSGNTATLTISRVEAGDEADYYCQVWDSSSDHVVFGGGTKLTVL	–
65.9	–	–	AB-010150 (antibody, mouse IgG2a, V domains shown) VH: QVQLQQWGAGLLKPSETLSLTCAVYGGSFSDYYWSWIRQPPGKGLEWIGEVNHRGSINYNNYNPSLKSRVTISVDTSKNQFSLKLSSVTAADTAVYYCAKPLRPHCTNGVCYSGDAFDIWGQGTMVTVSS VL: SYVLTQPPSVSVAPGQTARITCGGNNIGSKNVHWYQQKPGQAPVLVVYDDSDRPSGIPEQFSGSNSGNTATLTISRVEAGDEADYYCQVWDSSSDHLVFGGGTKLTVL	–
35.8	–	–	AB-010144 (antibody, mouse IgG2a, V domains shown) VH: QVQLQQWGAGLLKPSETLSLTCAVYGGSFSDYYWSWIRQPPGKGLEWIGEINHRGSINYNNYNPSLKSRVTISVDTSKNQFSLKLTSVTAADTAVYYCAKPLRPHCTNGVCYSGDAFDIWGQGTMVTVAS VL: SYVLTQPPSVSVAPGQTARITCGGNNIGSKNVHWYQQKPGQAPVLVVYDDSDRPSGIPEQFSGSNSGNTATLTISRVEAGDEADYYCQVWDSSSDHLVFGGGTKLTVL	–
48.9	–	–	AB-010145 (antibody, mouse IgG2a, V domains shown) VH: QVQLQQWGAGLLKPSETLSLTCAVYGGSFSDYYWSWIRQPPGKGLEWIGEVNHRGSINYNNYNPSLKSRVTISVDTSKNQFSLKLSSVTAADTAVYYCAKPLRPHCTNGVCYSGDAFDIWGQGTMVTVAS VL: SYVLTQPPSVSVAPGQTARITCGGNNIGSKNVHWYQQKPGQAPVLVVYDDSDRPSGIPEQFSGSNSGNTATLTISRVEAGDEADYYCQVWDSSSDHLVFGGGTKLTVL	–
–	14.5	2.4	AB-010364 (antibody, mouse IgG2a, V domains shown) VH: QVQLQQWGAGLLKPSETLSLTCAVYGGSFSGYYWSWIRQPPGKGLEWIGEINHAGSINYNNYNPSLKSRVTISVDTSKNQFSLKLSSVTAADTAVYYCAKPLRPHCTNGVCYSGDAFDIWGQGTMVTVAS VL: SYVLTQPPSVSVAPGQTARITCGGNNIGSKNVHWYQQKPGQAPVLVVYDDSDRPSGIPEQFSGSNSGNTATLTISRVEAGDEADYYCQVWDSSSDHVVFGGGTKLTVL	–
79.4	–	–	AB-010147 (antibody, mouse IgG2a, V domains shown) VH: QVQLQQWGAGLLKPSETLSLTCAVYGGSFSDYYWSWIRQPPGKGLEWIGEVNHRGSINYNNYNPSLKSRVTISVDTSKNQFSLKLTSVTAADTAVYYCAKPLRPHCTNGVCYSGDAFDIWGQGTMVTVAS VL: SYVLTQPPSVSVAPGQTARITCGGNNIGSKNVHWYQQKPGQAPVLVVYDDSDRPSGIPERFSGSNSGNTATLTISRVEAGDEADYYCQVWDSSSDHLVFGGGTKLTVL	–
–	34.6	1.01	AB-010365 (antibody, V domains shown) VH: QVQLQQWGAGLLKPSETLSLTCAVYGGSFSGYYWSWIRQPPGKGLEWIGEINHAGSINYNNYNPSLKSRVTISVDTSKNQFSLKLSSVTAADTAVYYCAKPLRPHCTNGVCYSGDAFDIWGQGTMVTVAS VL: SYVLTQPPSVSVAPGQTARITCGGNNIGSKNVHWYQQKPGQAPVLVVYDDSDRPSGIPERFSGSNSGNTATLTISRVEAGDEADYYCQVWDSSSDHVVFGGGTKLTVL	–
–	42.7	0.81	AB-010367 (antibody, V domains shown) VH: QVQLQQWGAGLLKPSETLSLTCAVYGGSFSGYYWSWIRQPPGKGLEWIGEINHQGSINYNNYNPSLKSRVTISVDTSKNQFSLKLSSVTAADTAVYYCAKPLRPHCTNGVCYSGDAFDIWGQGTMVTVAS VL: SYVLTQPPSVSVAPGQTARITCGGNNIGSKNVHWYQQKPGQAPVLVVYDDSDRPSGIPERFSGSNSGNTATLTISRVEAGDEADYYCQVWDSSSDHVVFGGGTKLTVL	–
–	4.3	8.09	AB-010360 (antibody, mouse IgG2a, V domains shown) VH: QVQLQQWGAGLLKPSETLSLTCAVYGGSFSGYYWSWIRQPPGKGLEWIGEINHRGSINYNNYNPSLKSRVTISVDTSKNQFSLKLSSVTAADTAVYYCAKPLRPHCTNGVCYSGDAFDIWGQGTMVTVAS VL: SYVLTQPPSVSVAPGQTARITCGGNNIGSKNVHWYQQKPGQAPVLVVYDDSDRPSGIPEQFSGSNSGNTATLTISRVEAGDEADYYCQVWDSSSDHLVFGGGTKLTVL	–
–	12.8	2.72	AB-010362 (antibody, mouse IgG2a, V domains shown) VH: QVQLQQWGAGLLKPSETLSLTCAVYGGSFSGYYWSWIRQPPGKGLEWIGEINHRGSINYNNYNPSLKSRVTISVDTSKNQFSLKLSSVTAADTAVYYCAKPLRPHCTNGVCYSGDAFDIWGQGTMVTVAS VL: SYVLTQPPSVSVAPGQTARITCGGNNIGSKNVHWYQQKPGQAPVLVVYDDSDRPSGIPERFSGSNSGNTATLTISRVEAGDEADYYCQVWDSSSDHLVFGGGTKLTVL	–
45	–	–	AB-010148 (antibody, mouse IgG2a, V domains shown) VH: QVQLQQWGAGLLKPSETLSLTCAVYGGSFSDYYWSWIRQPPGKGLEWIGEINHRGSINYNNYNPSLKSRVTISVDTSKNQFSLKLSSVTAADTAVYYCAKPLRPHCTNGVCYSGDAFDIWGQGTMVTVAS VL: SYVLTQPPSVSVAPGQTARITCGGNNIGSKNVHWYQQKPGQAPVLVVYDDSDRPSGIPEQFSGSNSGNTATLTISRVEAGDEADYYCQVWDSSSDHLVFGGGTKLTVL	–
66.8	–	–	AB-010146 (antibody, mouse IgG2a, V domains shown) VH: QVQLQQWGAGLLKPSETLSLTCAVYGGSFSDYYWSWIRQPPGKGLEWIGEVNHRGSINYNNYNPSLKSRVTISVDTSKNQFSLKLTSVTAADTAVYYCAKPLRPHCTNGVCYSGDAFDIWGQGTMVTVSS VL: SYVLTQPPSVSVAPGQTARITCGGNNIGSKNVHWYQQKPGQAPVLVVYDDSDRPSGIPEQFSGSNSGNTATLTISRVEAGDEADYYCQVWDSSSDHLVFGGGTKLTVL	–
–	–	–	AB-009816 (antibody, mouse IgG2a, V domains shown) VH: QVQLQQWGAGLLKPSETLSLTCAVYGGSFSDYYWSWIRQPPGKGLEWIGEVNHRGSINYNNYNPSLKSRVTISVDASKNQFSLKLTSVTAADTAVYYCAKPLRPHCTNGVCYSGDAFDIWGQGTMVTVAS VL: SYVLTQPPSVSVAPGQTARITCGGNNIGSKNVHWYQQKPGQAPVLVVYDDSDRPSGIPEQFSGSNSGNTATLTISRVEAGDEADYYCQVWDSSSDHLVFGGGTKLTVL	ADCC Delta, A549 cells [3]: 58; ADCC EC50 (nM), A549 cells [3]: 12.5 nM; EC50 [4]: 5.5 nM; Flow Delta [4]: 670000
–	–	–	AB-009817 (antibody, mouse IgG2a, V domains shown) VH: QVQLQQWGAGLLKPSETLSLTCAVYGGSFSDYYWSWIRQPPGKGLEWIGEVNHRGSINYNNYNPSLKSRVTISVDPSKNQFSLKLTSVTAADTAVYYCAKPLRPHCTNAVCYSGDAFDIWGQGTMVTVAS VL: SYVLTQPPSVSVAPGQTARITCGGNNIGSKNVHWYQQKPGQAPVLVVYDDSDRPSGIPEQFSGSNSGNTATLTISRVEAGDEADYYCQVWDSSSDHLVFGGGTKLTVL	ADCC Delta, A549 cells [3]: 0; Flow Delta [4]: 0; binding result [4]: no binding (tested: tested up to 1 µM)
–	–	–	AB-009813 (antibody, mouse IgG2a, V domains shown) VH: QVQLQQWGAGLLKPSETLSLTCAVYGGSFSDYYWSWIRQPPGKGLEWIGEVNHAGSINYNNYNPSLKSRVTISVDPSKNQFSLKLTSVTAADTAVYYCAKPLRPHCTNGVCYSGDAFDIWGQGTMVTVAS VL: SYVLTQPPSVSVAPGQTARITCGGNNIGSKNVHWYQQKPGQAPVLVVYDDSDRPSGIPEQFSGSNSGNTATLTISRVEAGDEADYYCQVWDSSSDHLVFGGGTKLTVL	ADCC Delta, A549 cells [3]: 39.9; ADCC EC50 (nM), A549 cells [3]: 26 nM; EC50 [4]: 6.8 nM; Flow Delta [4]: 578000
–	–	–	AB-009814 (antibody, mouse IgG2a, V domains shown) VH: QVQLQQWGAGLLKPSETLSLTCAVYGGSFSDYYWSWIRQPPGKGLEWIGEVNHRGSINYNPSLKSRVTISVDPSKNQFSLKLTSVTAADTAVYYCAKPLRPHCTNGVCYSGDAFDIWGQGTMVTVAS VL: SYVLTQPPSVSVAPGQTARITCGGNNIGSKNVHWYQQKPGQAPVLVVYDDSDRPSGIPEQFSGSNSGNTATLTISRVEAGDEADYYCQVWDSSSDHLVFGGGTKLTVL	ADCC Delta, A549 cells [3]: 36; ADCC EC50 (nM), A549 cells [3]: 62.8 nM; EC50 [4]: 11.5 nM; Flow Delta [4]: 407000
–	–	–	AB-009812 (antibody, mouse IgG2a, V domains shown) VH: QVQLQQWGAGLLKPSETLSLTCAVYGGSFSDYYWSWIRQPPGKGLEWIGEVNHSGSINYNNYNPSLKSRVTISVDPSKNQFSLKLTSVTAADTAVYYCAKPLRPHCTNGVCYSGDAFDIWGQGTMVTVAS VL: SYVLTQPPSVSVAPGQTARITCGGNNIGSKNVHWYQQKPGQAPVLVVYDDSDRPSGIPEQFSGSNSGNTATLTISRVEAGDEADYYCQVWDSSSDHLVFGGGTKLTVL	ADCC Delta, A549 cells [3]: 41.1; ADCC EC50 (nM), A549 cells [3]: 51 nM; EC50 [4]: 9.6 nM; Flow Delta [4]: 568000
